This assay has as its target tr10b_human TNFRSF10B (UniProt O14763).

As to “Ras-related C3 botulinum toxin substrate 1 (Homo sapiens) (from UniProt P63000) T17N”, the “effect of a mutation on the interaction” value was “decreasing interaction strength”.

The values above are taken from IntAct's records for PubMed 25843002.
